Abundance fitness data for 39 variants are collected here from the Human Domainome abundance scans (Beltran et al. 2025).

± gives the uncertainty stated by the source.

Sequences and labels used below:
B1: Histone H1t, residues 44 to 112; numbered along this chain, P22492 (parent)
chain: VSKLITEALSVSQERVGMSLVALKKALAAAGYDVEKNNSRIKLSLKSLVNKGILVQTRGTGASGSFKLS

In the data set the parent is B1. In words: abundance fitness (aPCA) (normalised: wild type 0, dead -1); higher = more abundant; growth selection in yeast, the domain comes from the species named. The note with it: Homo sapiens.
As to VSKLITEALSVSVERVGMSLVALKKALAAAGYDVEKNNSRIKLSLKSLVNKGILVQTRGTGASGSFKLS [Q13V], the abundance fitness was -0.342 ± 0.069.

As to VSKLITEALSVSQEFVGMSLVALKKALAAAGYDVEKNNSRIKLSLKSLVNKGILVQTRGTGASGSFKLS [R15F], the abundance fitness was -0.258 ± 0.052.

VSKLITEALSVSQELVGMSLVALKKALAAAGYDVEKNNSRIKLSLKSLVNKGILVQTRGTGASGSFKLS [R15L]: the abundance fitness was -0.501 ± 0.046.

For the variant VSKLITEALSVSQESVGMSLVALKKALAAAGYDVEKNNSRIKLSLKSLVNKGILVQTRGTGASGSFKLS [R15S], the abundance fitness was -0.089 ± 0.046.

VSKLITEALSVSQEHVGMSLVALKKALAAAGYDVEKNNSRIKLSLKSLVNKGILVQTRGTGASGSFKLS [R15H]: the abundance fitness was -0.061 ± 0.13.

With VSKLITEALSVSQEQVGMSLVALKKALAAAGYDVEKNNSRIKLSLKSLVNKGILVQTRGTGASGSFKLS [R15Q], the abundance fitness is -0.143 ± 0.24.

Consider VSKLITEALSVSQEMVGMSLVALKKALAAAGYDVEKNNSRIKLSLKSLVNKGILVQTRGTGASGSFKLS [R15M], for which the abundance fitness is -0.364 ± 0.053.

With VSKLITEALSVSQEDVGMSLVALKKALAAAGYDVEKNNSRIKLSLKSLVNKGILVQTRGTGASGSFKLS [R15D], the abundance fitness was 0.096 ± 0.13.

As to VSKLITEALSVSQENVGMSLVALKKALAAAGYDVEKNNSRIKLSLKSLVNKGILVQTRGTGASGSFKLS [R15N], the abundance fitness amounted to 0.063 ± 0.081.

Consider VSKLITEALSVSQEVVGMSLVALKKALAAAGYDVEKNNSRIKLSLKSLVNKGILVQTRGTGASGSFKLS [R15V], for which the abundance fitness is -0.45 ± 0.1.

For the variant VSKLITEALSVSQEYVGMSLVALKKALAAAGYDVEKNNSRIKLSLKSLVNKGILVQTRGTGASGSFKLS [R15Y], the abundance fitness is -0.338 ± 0.069.

VSKLITEALSVSQEKVGMSLVALKKALAAAGYDVEKNNSRIKLSLKSLVNKGILVQTRGTGASGSFKLS [R15K]: the abundance fitness was determined as 0.234 ± 0.069.

In the case of VSKLITEALSVSQEPVGMSLVALKKALAAAGYDVEKNNSRIKLSLKSLVNKGILVQTRGTGASGSFKLS [R15P], the abundance fitness was -0.163 ± 0.11.

With VSKLITEALSVSQEIVGMSLVALKKALAAAGYDVEKNNSRIKLSLKSLVNKGILVQTRGTGASGSFKLS [R15I], the abundance fitness was -0.312 ± 0.076.

With VSKLITEALSVSQETVGMSLVALKKALAAAGYDVEKNNSRIKLSLKSLVNKGILVQTRGTGASGSFKLS [R15T], the abundance fitness is 0.05 ± 0.055.

Regarding VSKLITEALSVSQEEVGMSLVALKKALAAAGYDVEKNNSRIKLSLKSLVNKGILVQTRGTGASGSFKLS [R15E], the abundance fitness is 0.084 ± 0.091.

VSKLITEALSVSQEGVGMSLVALKKALAAAGYDVEKNNSRIKLSLKSLVNKGILVQTRGTGASGSFKLS [R15G]: the abundance fitness is -0.15 ± 0.48.

VSKLITEALSVSQHRVGMSLVALKKALAAAGYDVEKNNSRIKLSLKSLVNKGILVQTRGTGASGSFKLS [E14H]: the abundance fitness is -0.373 ± 0.087.

VSKLITEALSVSQSRVGMSLVALKKALAAAGYDVEKNNSRIKLSLKSLVNKGILVQTRGTGASGSFKLS [E14S]: the abundance fitness was -0.274 ± 0.05.

Consider VSKLITEALSVSQMRVGMSLVALKKALAAAGYDVEKNNSRIKLSLKSLVNKGILVQTRGTGASGSFKLS [E14M], for which the abundance fitness is -0.649 ± 0.051.

VSKLITEALSVSQFRVGMSLVALKKALAAAGYDVEKNNSRIKLSLKSLVNKGILVQTRGTGASGSFKLS [E14F]: the abundance fitness was -0.852 ± 0.039.

For the variant VSKLITEALSVSQCRVGMSLVALKKALAAAGYDVEKNNSRIKLSLKSLVNKGILVQTRGTGASGSFKLS [E14C], the abundance fitness is -0.838 ± 0.46.

On to VSKLITEALSVSQVRVGMSLVALKKALAAAGYDVEKNNSRIKLSLKSLVNKGILVQTRGTGASGSFKLS [E14V], for which the abundance fitness was -0.651 ± 0.13.

Regarding VSKLITEALSVSQDRVGMSLVALKKALAAAGYDVEKNNSRIKLSLKSLVNKGILVQTRGTGASGSFKLS [E14D], the abundance fitness was -0.271 ± 0.36.

Consider VSKLITEALSVSQNRVGMSLVALKKALAAAGYDVEKNNSRIKLSLKSLVNKGILVQTRGTGASGSFKLS [E14N], for which the abundance fitness is -0.508 ± 0.084.

With VSKLITEALSVSQKRVGMSLVALKKALAAAGYDVEKNNSRIKLSLKSLVNKGILVQTRGTGASGSFKLS [E14K], the abundance fitness is -0.449 ± 0.083.

In the case of VSKLITEALSVSQLRVGMSLVALKKALAAAGYDVEKNNSRIKLSLKSLVNKGILVQTRGTGASGSFKLS [E14L], the abundance fitness is -0.71 ± 0.033.

For the variant VSKLITEALSVSQRRVGMSLVALKKALAAAGYDVEKNNSRIKLSLKSLVNKGILVQTRGTGASGSFKLS [E14R], the abundance fitness is -0.61 ± 0.23.

As to VSKLITEALSVSQIRVGMSLVALKKALAAAGYDVEKNNSRIKLSLKSLVNKGILVQTRGTGASGSFKLS [E14I], the abundance fitness is -0.712 ± 0.055.

For the variant VSKLITEALSVSQARVGMSLVALKKALAAAGYDVEKNNSRIKLSLKSLVNKGILVQTRGTGASGSFKLS [E14A], the abundance fitness is -0.456 ± 0.19.

On to VSKLITEALSVSQQRVGMSLVALKKALAAAGYDVEKNNSRIKLSLKSLVNKGILVQTRGTGASGSFKLS [E14Q], for which the abundance fitness is -0.456 ± 0.087.

For the variant VSKLITEALSVSQYRVGMSLVALKKALAAAGYDVEKNNSRIKLSLKSLVNKGILVQTRGTGASGSFKLS [E14Y], the abundance fitness was -0.67 ± 0.056.

With VSKLITEALSVSQTRVGMSLVALKKALAAAGYDVEKNNSRIKLSLKSLVNKGILVQTRGTGASGSFKLS [E14T], the abundance fitness is -0.4 ± 0.071.

On to VSKLITEALSVSQERAGMSLVALKKALAAAGYDVEKNNSRIKLSLKSLVNKGILVQTRGTGASGSFKLS [V16A], for which the abundance fitness stood at 0.037 ± 0.23.

As to VSKLITEALSVSQERDGMSLVALKKALAAAGYDVEKNNSRIKLSLKSLVNKGILVQTRGTGASGSFKLS [V16D], the abundance fitness came to 0.347 ± 0.19.

As for VSKLITEALSVSQERIGMSLVALKKALAAAGYDVEKNNSRIKLSLKSLVNKGILVQTRGTGASGSFKLS [V16I], the abundance fitness was -0.058 ± 0.033.

On to VSKLITEALSVSQERHGMSLVALKKALAAAGYDVEKNNSRIKLSLKSLVNKGILVQTRGTGASGSFKLS [V16H], for which the abundance fitness is -0.031 ± 0.051.

Turning to VSKLITEALSVSQERFGMSLVALKKALAAAGYDVEKNNSRIKLSLKSLVNKGILVQTRGTGASGSFKLS [V16F], the abundance fitness was -0.224 ± 0.03.

On to VSKLITEALSVSQERKGMSLVALKKALAAAGYDVEKNNSRIKLSLKSLVNKGILVQTRGTGASGSFKLS [V16K], for which the abundance fitness is -0.16 ± 0.033.
